Measurements reported in patent US20220048967A1 (published 2022).
Numbered stars: 1 amine (or outer) side, 2 acyl side, 3 side chain; on linkers, the order of the positions; unused ones are H or OH. Square brackets hold non-standard residues; d marks the D form. Side chains are listed from the residue outwards. Ends that are not written are not given here. * marks the point of attachment. C20 diacid = O=C(O)CCCCCCCCCCCCCCCCCCC(=O)*; C18 diacid = O=C(O)CCCCCCCCCCCCCCCCC(=O)*; γGlu = O=C(O)[C@H](CCC(=O)[*:2])N[*:1]; AEEA = NCCOCCOCC(=O)O; Aib = CC(C)(N)C(=O)O

T1: human gastric inhibitory peptide receptor (GIPR) (human, UniProt P48546 22-466)
T1 sequence (looked up): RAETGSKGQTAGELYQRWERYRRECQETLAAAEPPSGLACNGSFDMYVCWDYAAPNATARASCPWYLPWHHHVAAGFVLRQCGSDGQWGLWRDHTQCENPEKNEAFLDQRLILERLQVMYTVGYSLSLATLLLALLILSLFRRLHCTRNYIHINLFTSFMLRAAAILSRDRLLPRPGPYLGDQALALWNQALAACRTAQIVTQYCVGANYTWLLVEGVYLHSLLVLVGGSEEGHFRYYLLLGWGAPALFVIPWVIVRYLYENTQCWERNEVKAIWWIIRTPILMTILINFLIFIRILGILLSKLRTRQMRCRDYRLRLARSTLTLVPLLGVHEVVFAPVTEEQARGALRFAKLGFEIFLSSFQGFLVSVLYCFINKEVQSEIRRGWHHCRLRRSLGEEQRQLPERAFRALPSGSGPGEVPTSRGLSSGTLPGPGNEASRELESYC


Tests used:
[1] = target: T1, human gastric inhibitory peptide …; assay: cell-based or functional assay
[2] = target: human GLP-1 receptor (GLP-1R) (human, UniProt P43220 24-463); assay: cell-based or functional assay

| Binder | hGIPR cAMP EC50 ratio [1] | hGIPR cAMP Rel EC50 [1] [pM] | hGLP1R cAMP EC50 ratio [2] | hGLP1R cAMP Rel EC50 [2] [pM] |
| --- | --- | --- | --- | --- |
| Y[Aib]EGTFTSDYSILLDKK([AEEA-AEEA-γGlu-C18 diacid])AQPAFIEYLIEGGPSSG-NH2 (N-terminus assumed; SMILES CC[C@H](C)[C@H](NC(=O)[C@H](CC(C)C)NC(=O)[C@H](Cc1ccc(O)cc1)NC(=O)[C@H](CCC(=O)O)NC(=O)[C@@H](NC(=O)[C@H](Cc1ccccc1)NC(=O)[C@H](C)NC(=O)[C@@H]1CCCN1C(=O)[C@H](CCC(N)=O)NC(=O)[C@H](C)NC(=O)[C@H](CCCCNC(=O)COCCOCCNC(=O)COCCOCCNC(=O)CC[C@H](NC(=O)CCCCCCCCCCCCCCCCC(=O)O)C(=O)O)NC(=O)[C@H](CCCCN)NC(=O)[C@H](CC(=O)O)NC(=O)[C@H](CC(C)C)NC(=O)[C@H](CC(C)C)NC(=O)[C@@H](NC(=O)[C@H](CO)NC(=O)[C@H](Cc1ccc(O)cc1)NC(=O)[C@H](CC(=O)O)NC(=O)[C@H](CO)NC(=O)[C@@H](NC(=O)[C@H](Cc1ccccc1)NC(=O)[C@@H](NC(=O)CNC(=O)[C@H](CCC(=O)O)NC(=O)C(C)(C)NC(=O)[C@@H](N)Cc1ccc(O)cc1)[C@@H](C)O)[C@@H](C)O)[C@@H](C)CC)[C@@H](C)CC)C(=O)N[C@@H](CCC(=O)O)C(=O)NCC(=O)NCC(=O)N1CCC[C@H]1C(=O)N[C@@H](CO)C(=O)N[C@@H](CO)C(=O)NCC(N)=O) [Example 274] | < 0.00741 | > 30000 | 0.00353 | 14500 |
| Y[Aib]EGTFTSDYSILLDKK([AEEA-AEEA-γGlu-C20 diacid])AQ[Aib]AFIEYLIAGGPSSGAPPPS-NH2 (N-terminus assumed; SMILES CC[C@H](C)[C@H](NC(=O)[C@H](CC(C)C)NC(=O)[C@H](Cc1ccc(O)cc1)NC(=O)[C@H](CCC(=O)O)NC(=O)[C@@H](NC(=O)[C@H](Cc1ccccc1)NC(=O)[C@H](C)NC(=O)C(C)(C)NC(=O)[C@H](CCC(N)=O)NC(=O)[C@H](C)NC(=O)[C@H](CCCCNC(=O)COCCOCCNC(=O)COCCOCCNC(=O)CC[C@H](NC(=O)CCCCCCCCCCCCCCCCCCC(=O)O)C(=O)O)NC(=O)[C@H](CCCCN)NC(=O)[C@H](CC(=O)O)NC(=O)[C@H](CC(C)C)NC(=O)[C@H](CC(C)C)NC(=O)[C@@H](NC(=O)[C@H](CO)NC(=O)[C@H](Cc1ccc(O)cc1)NC(=O)[C@H](CC(=O)O)NC(=O)[C@H](CO)NC(=O)[C@@H](NC(=O)[C@H](Cc1ccccc1)NC(=O)[C@@H](NC(=O)CNC(=O)[C@H](CCC(=O)O)NC(=O)C(C)(C)NC(=O)[C@@H](N)Cc1ccc(O)cc1)[C@@H](C)O)[C@@H](C)O)[C@@H](C)CC)[C@@H](C)CC)C(=O)N[C@@H](C)C(=O)NCC(=O)NCC(=O)N1CCC[C@H]1C(=O)N[C@@H](CO)C(=O)N[C@@H](CO)C(=O)NCC(=O)N[C@@H](C)C(=O)N1CCC[C@H]1C(=O)N1CCC[C@H]1C(=O)N1CCC[C@H]1C(=O)N[C@@H](CO)C(N)=O) [Example 288] | 1.2 | 73.2 | 0.393 | 172 |
| YXEGTFTSDYSIXLDKKAQXEFIEYLIAGGPSSGAPPPS (Aib2, αMeL13, (2-[2-(2-Amino-ethoxy)-ethoxy]-acetyl)2-(γ-Glu)-CO-(CH2)18-CO2H on K17, Aib20, C-terminal NH2) [Example 289] | 4.13 | 22.8 | 1.33 | 54.4 |
| XXEGTFTSDYSIXLDXKAQXEFIEXLIAGGPSSGAPPPS (D-Tyr1, Aib2, αMeL13, Orn16, (2-[2-(2-Amino-ethoxy)-ethoxy]-acetyl)2-(γ-Glu)-CO-(CH2)18-CO2H on K17, Aib20, αMeY25, C-terminal NH2) [Example 293] | 1.36 | 56.2 | 0.197 | 132 |
| XXEGTFTSDYSIXLDKKAQXEFIEXLIAGGPSSGAPPPS (D-Tyr1, Aib2, αMeL13, (2-[2-(2-Amino-ethoxy)-ethoxy]-acetyl)2-(γ-Glu)-CO-(CH2)18-CO2H on K17, Aib20, αMeY25, C-terminal NH2) [Example 292] | 1.1 | 68.2 | 0.143 | 183 |
| XXEGTFTSDYSIXLDXKAQXAFIXYLIAGGPSSGAPPPS (D-Tyr1, Aib2, αMeL13, Orn16, (2-[2-(2-Amino-ethoxy)-ethoxy]-acetyl)2-(γ-Glu)-CO-(CH2)18-CO2H on K17, Aib20, D-Glu24, C-terminal NH2) [Example 291] | 0.746 | 118 | 0.188 | 150 |
| XXEGTFTSDYSIXLDKKAQXEFIEYLIAGGPSSGAPPPS (D-Tyr1, Aib2, αMeL13, (2-[2-(2-Amino-ethoxy)-ethoxy]-acetyl)2-(γ-Glu)-CO-(CH2)18-CO2H on K17, Aib20, C-terminal NH2) [Example 290] | 1.09 | 62.9 | 0.279 | 179 |
| Y[Aib]EGTFTSDYSILLDKK([AEEA-AEEA-γGlu-C18 diacid])AQ[Aib]AFIEYLIAGG-NH2 (N-terminus assumed; SMILES CC[C@H](C)[C@H](NC(=O)[C@H](CC(C)C)NC(=O)[C@H](Cc1ccc(O)cc1)NC(=O)[C@H](CCC(=O)O)NC(=O)[C@@H](NC(=O)[C@H](Cc1ccccc1)NC(=O)[C@H](C)NC(=O)C(C)(C)NC(=O)[C@H](CCC(N)=O)NC(=O)[C@H](C)NC(=O)[C@H](CCCCNC(=O)COCCOCCNC(=O)COCCOCCNC(=O)CC[C@H](NC(=O)CCCCCCCCCCCCCCCCC(=O)O)C(=O)O)NC(=O)[C@H](CCCCN)NC(=O)[C@H](CC(=O)O)NC(=O)[C@H](CC(C)C)NC(=O)[C@H](CC(C)C)NC(=O)[C@@H](NC(=O)[C@H](CO)NC(=O)[C@H](Cc1ccc(O)cc1)NC(=O)[C@H](CC(=O)O)NC(=O)[C@H](CO)NC(=O)[C@@H](NC(=O)[C@H](Cc1ccccc1)NC(=O)[C@@H](NC(=O)CNC(=O)[C@H](CCC(=O)O)NC(=O)C(C)(C)NC(=O)[C@@H](N)Cc1ccc(O)cc1)[C@@H](C)O)[C@@H](C)O)[C@@H](C)CC)[C@@H](C)CC)C(=O)N[C@@H](C)C(=O)NCC(=O)NCC(N)=O) [Example 273] | 2.15 | 79 | 1.85 | 35.2 |
| Y[Aib]EGTFTSDYSILLDKK([AEEA-AEEA-γGlu-C18 diacid])AQ[Aib]AFIEYLIAGGPSSG-NH2 (N-terminus assumed; SMILES CC[C@H](C)[C@H](NC(=O)[C@H](CC(C)C)NC(=O)[C@H](Cc1ccc(O)cc1)NC(=O)[C@H](CCC(=O)O)NC(=O)[C@@H](NC(=O)[C@H](Cc1ccccc1)NC(=O)[C@H](C)NC(=O)C(C)(C)NC(=O)[C@H](CCC(N)=O)NC(=O)[C@H](C)NC(=O)[C@H](CCCCNC(=O)COCCOCCNC(=O)COCCOCCNC(=O)CC[C@H](NC(=O)CCCCCCCCCCCCCCCCC(=O)O)C(=O)O)NC(=O)[C@H](CCCCN)NC(=O)[C@H](CC(=O)O)NC(=O)[C@H](CC(C)C)NC(=O)[C@H](CC(C)C)NC(=O)[C@@H](NC(=O)[C@H](CO)NC(=O)[C@H](Cc1ccc(O)cc1)NC(=O)[C@H](CC(=O)O)NC(=O)[C@H](CO)NC(=O)[C@@H](NC(=O)[C@H](Cc1ccccc1)NC(=O)[C@@H](NC(=O)CNC(=O)[C@H](CCC(=O)O)NC(=O)C(C)(C)NC(=O)[C@@H](N)Cc1ccc(O)cc1)[C@@H](C)O)[C@@H](C)O)[C@@H](C)CC)[C@@H](C)CC)C(=O)N[C@@H](C)C(=O)NCC(=O)NCC(=O)N1CCC[C@H]1C(=O)N[C@@H](CO)C(=O)N[C@@H](CO)C(=O)NCC(N)=O) [Example 272] | 2.97 | 46.4 | 1.19 | 43.5 |
| Y[Aib]EGTFTSDYSILLDKK([AEEA-AEEA-γGlu-C18 diacid])AQPAFIEYLIEGG-NH2 (N-terminus assumed; SMILES CC[C@H](C)[C@H](NC(=O)[C@H](CC(C)C)NC(=O)[C@H](Cc1ccc(O)cc1)NC(=O)[C@H](CCC(=O)O)NC(=O)[C@@H](NC(=O)[C@H](Cc1ccccc1)NC(=O)[C@H](C)NC(=O)[C@@H]1CCCN1C(=O)[C@H](CCC(N)=O)NC(=O)[C@H](C)NC(=O)[C@H](CCCCNC(=O)COCCOCCNC(=O)COCCOCCNC(=O)CC[C@H](NC(=O)CCCCCCCCCCCCCCCCC(=O)O)C(=O)O)NC(=O)[C@H](CCCCN)NC(=O)[C@H](CC(=O)O)NC(=O)[C@H](CC(C)C)NC(=O)[C@H](CC(C)C)NC(=O)[C@@H](NC(=O)[C@H](CO)NC(=O)[C@H](Cc1ccc(O)cc1)NC(=O)[C@H](CC(=O)O)NC(=O)[C@H](CO)NC(=O)[C@@H](NC(=O)[C@H](Cc1ccccc1)NC(=O)[C@@H](NC(=O)CNC(=O)[C@H](CCC(=O)O)NC(=O)C(C)(C)NC(=O)[C@@H](N)Cc1ccc(O)cc1)[C@@H](C)O)[C@@H](C)O)[C@@H](C)CC)[C@@H](C)CC)C(=O)N[C@@H](CCC(=O)O)C(=O)NCC(=O)NCC(N)=O) [Example 275] | < 0.00741 | > 30000 | 0.00357 | 14000 |
